Measurements published in PMC9353652 (Journal of the American Chemical Society, 2021).

Tests used:
[1] = target: ATP-grasp ligase CdnC (Chryseobacterium gregarium DSM 19109); test: SEC
[2] = target: chymotrypsin

stoichiometry N [1] | inhibition of chymotrypsin activity (protease inhibition assay) [2] | Substance
2 |  | ATP-grasp ligase CdnC (enzyme)
 | 70 nM | chryseoviridin (fully cyclized, full length core region of CdnA3) (peptide)
